Results: publication PMC2914802

Columns and labels:
Test in all cases: steady-state hydrolysis kinetics
Format in all cases: biochemical, Burkholderia lata
Conditions in all cases: Zn2+; pH 8.0
[1] = substrate: CCCC(=O)N1CCC[C@H]1C(=O)O
[2] = substrate: CC(=O)N1CCC[C@H]1C(=O)O
[3] = substrate: CCC(=O)N1CCC[C@H]1C(=O)O

B1: Sgx9260c (Burkholderia lata) (protein)
chain: MTITVLQGGNVLDLERGVLLDHHHVVIDGDRIVEVTDRPVDFPNAQVIDVRGKTVMPGFIDCHVHVLASNANLGANATQPNILAAIRSLPILDAMLSRGFTSVRDAGGADWSLMQAVETGLVSGPRIFPSGKALSQTGGHGDFRPRGDLLEPCSCCFRTGAIARVVDGVEGVRLAVREEIQKGATQIKIMASGGVASPTDPIANTQYSEDEIRAIVDEAEAANTYVMAHAYTGRAIARAVRCGVRTIEHGNLVDEAAAKLMHEHGAFVVPTLVTYDALAKHGAEFGMPPESVAKVASVQQKGRESLEIYANAGVKMGFGSDLLGEMHEFQSGEFRIRAEVLGNLEALRSATTVAAEIVNMQGQLGVVAAGAIADLVVLDGNPLEDIGVVAGQGERVEYVLQRGRIVKAREFRRTMARE
Protein B1 has a Km [1] of 2600 ± 300 µM, a kcat [1] of 146 ± 6 s⁻¹ and a kcat/Km [1] of 56000 M⁻¹ s⁻¹. It also gave a Km [2] of 800 ± 100 µM, a kcat [2] of 227 ± 9 s⁻¹ and a kcat/Km [2] of 280000 M⁻¹ s⁻¹. The Km [3] was 1900 ± 200 µM, the kcat [3] was 141 ± 6 s⁻¹ and the kcat/Km [3] was 74000 M⁻¹ s⁻¹.
